Results reported in paper PMC7856282 (Nature biomedical engineering, 2020).

Experiment: Dynamic light scattering
Assay type: physicochemical
Conditions: PBS, 100 mM MgCl2; insulin 25 µM, dAb 1 mg/mL; Figure S2 and S3

insulin: human insulin obtained from R&D Systems; analyte of the assay
aggregation under buffer conditions (DLS): No aggregation
